Target: Taq DNA polymerase (UniProt P19821 P19821:1-832)
Assay: EMSA; band of key/amplicon hybrid shifted on adding Taq; 4 mM MgCl2, 20 mM Tris-HCl pH 8.3, 20 mM KCl, room temp; text does not name the individual keys run
Conditions: tags: New England Biolabs (band shift); Maxima Hot Start Taq, Thermo Scientific, in PAD assay
Procedure: Electrophoretic Band Shift Experiment Solution containing 100 or 200 nM detection key, PCR products and 12.5 U Taq DNA polymerase (New England Biolabs) in 20 mM Tris-HCl (pH 8.3), 20 mM KCl, 5 mM (NH4)2SO4, and 4 mM MgCl2 was incubated at room temperature for 20 min. The solution was mixed with 6× loading buffer and subjected to electrophoresis on a 20% polyacrylamide gel (Life technologies). The analysis was carried out in 1× TBE (100 mM Tris, 90 mM Borate, 1 mM EDTA) at 150 V for 160 min at 4° C. After GelRed (Biotium) staining, gels were scanned using a UV transilluminator. DNA polymerase was neither fluorescent nor stained by the dye.
The sequence homology among genus types was kept <50% to minimize non-specific binding. When tested, the HAI keys assumed high specificity. […] Electrophoretic band-shift analysis confirmed that the detection keys, in the presence of complementary target amplicon, bound to DNA polymerase and inhibited its catalytic activity (see FIG. 24). […] This confirmed the binding between detection keys and DNA polymerase.

Chain of Taq DNA polymerase (P19821 whole entry, one chain of several): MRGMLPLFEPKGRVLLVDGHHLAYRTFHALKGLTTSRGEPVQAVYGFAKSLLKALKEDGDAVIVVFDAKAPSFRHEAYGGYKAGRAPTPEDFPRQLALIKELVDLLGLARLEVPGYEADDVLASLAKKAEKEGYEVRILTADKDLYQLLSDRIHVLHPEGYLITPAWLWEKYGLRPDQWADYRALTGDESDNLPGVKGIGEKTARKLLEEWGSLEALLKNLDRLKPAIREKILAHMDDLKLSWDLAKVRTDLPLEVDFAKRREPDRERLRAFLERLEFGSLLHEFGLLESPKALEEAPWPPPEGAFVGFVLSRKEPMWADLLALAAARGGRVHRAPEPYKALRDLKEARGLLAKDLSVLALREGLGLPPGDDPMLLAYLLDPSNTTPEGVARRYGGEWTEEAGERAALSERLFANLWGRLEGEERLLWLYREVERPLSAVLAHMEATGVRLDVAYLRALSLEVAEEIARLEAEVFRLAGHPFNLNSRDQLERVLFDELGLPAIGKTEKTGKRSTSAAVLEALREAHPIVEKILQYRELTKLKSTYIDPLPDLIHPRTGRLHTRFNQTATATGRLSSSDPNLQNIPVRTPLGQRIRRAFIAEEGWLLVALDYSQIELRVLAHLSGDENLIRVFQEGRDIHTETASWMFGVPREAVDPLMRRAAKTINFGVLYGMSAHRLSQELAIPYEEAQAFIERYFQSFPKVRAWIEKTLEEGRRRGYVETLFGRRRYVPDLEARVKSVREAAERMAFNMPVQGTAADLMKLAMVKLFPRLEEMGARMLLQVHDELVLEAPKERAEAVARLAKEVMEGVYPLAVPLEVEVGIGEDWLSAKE

B1: Escherichia detection key / Escherichia amplicon (mixed)
DNA 1: CAATGTACAGTATTGTGGAGGAAGGGAGTAAAGTTAAT
DNA 2: TGCGGGTAACGTCAATGAGCAAAGGTATTAACTTTACTCCCTTCCTCCA
modifications: amplicon strand dU in place of dT in dUTP assay
B1: binds.
